Experimental data: patent publication US20200264182A1, “METHOD FOR DETECTING PROSTATE CANCER” (J-OIL MILLS, INC., priority 2017, published 2020)

Experiments:
FAC binding constant = conditions: at 25° C.
Description: (§1) Details of the FAC method are described in Patent Document 2 filed by some of the present applicants, for example.
(§2) Binding constants (at 25° C.) of PhoSL, SRL, NSL and LSL belonging to the fucose α1→6 specific lectin for various sugar chains are shown in Tables 2 to 5.

[1] = FAC binding constant (Table 5 entry); conditions: Table 5: sugar chain having no fucose; at 25° C.
Description: as §1, §2

[2] = Binding to sugar chains, summary of Tables 2 to 5
Description: as §1, §2
The AAL and AOL bind to the fucose α1→6 sugar chains (sugar chains No. 015, 201 to 203, and 401 to 418), as well as to the glycolipid-type sugar chain excluding the fucose α1→6 (sugar chains No. 718, 722, 723, 727, 909, 910 and 933). The LCL and PSL bind to the fucose α1→6 sugar chain, as well as to sugar chain excluding the α1→6 fucose (sugar chains No. 003, and 005 to 014).
Furthermore, the binding constant of the fucose α1→6 specific lectin is not decreased even if a sialic acid is added to the fucose α1→6 sugar chain (sugar chains No. 601 and 602). In addition, the fucose α1→6 specific lectin also strongly binds to the triple-strand (sugar chains No. 407 to 413) and the four-strand (sugar chains No. 418) of the fucose uα1→6 sugar chain.

[3] = sugar chain having fucose other than α1→6 fucose

B1: LCL: Lens culinaris lectin, affinity for fucose α1→6 but not specific (protein)
chain 1: TETTSFSITKFSPDQKNLIFQGDGYTTKGKLTLTKAVKSTVGRALYSTPIHIWDRDTGNVANFVTSFTFVIDAPSSYNVADEFTFFIAPVDTKPQTGGGYLGVFNSKEYDKTSQTVAVEFDTFYNAAWDPSNKERHIGIDVNSIKSVNTKSWNLQNGERANVVIAFNAATNVLTVTLTYP
chain 2: VTSYTLNEVVPLKDVVPEWVRIGFSATTGAEFAAHEVHSWSFHSELGGTSSS
For B1, the “Binding constant for sugar chain No. 728” value (FAC binding constant; Table 3: sugar chain having fucose other than α1→6 fucose) was less than 1000 M⁻¹, the “Binding constant for sugar chain No. 419” value (FAC binding constant; [3]) was less than 1000 M⁻¹ and the “Binding constant for sugar chain No. 420” value (FAC binding constant; [3]) was less than 1000 M⁻¹. For the same molecule, the “Binding constant for sugar chain No. 718” value (FAC binding constant; [3]) was less than 1000 M⁻¹, the “Binding constant for sugar chain No. 719” value (FAC binding constant; [3]) was less than 1000 M⁻¹ and the “Binding constant for sugar chain No. 720” value (FAC binding constant; [3]) was less than 1000 M⁻¹. The “Binding constant for sugar chain No. 721” value (FAC binding constant; [3]) was less than 1000 M⁻¹, the “Binding constant for sugar chain No. 722” value (FAC binding constant; [3]) was less than 1000 M⁻¹ and the “Binding constant for sugar chain No. 723” value (FAC binding constant; [3]) was less than 1000 M⁻¹. For the same molecule, the “Binding constant for sugar chain No. 726” value (FAC binding constant; [3]) was less than 1000 M⁻¹, the “Binding constant for sugar chain No. 727” value (FAC binding constant; [3]) was less than 1000 M⁻¹ and the “Binding constant for sugar chain No. 729” value (FAC binding constant; [3]) was less than 1000 M⁻¹. For the same molecule, the “Binding constant for sugar chain No. 730” value (FAC binding constant; [3]) was less than 1000 M⁻¹, the “Binding constant for sugar chain No. 731” value (FAC binding constant; [3]) was less than 1000 M⁻¹ and the “Binding constant for sugar chain No. 739” value (FAC binding constant; [3]) was less than 1000 M⁻¹. For the same molecule, the “Binding constant for sugar chain No. 909” value (FAC binding constant; [3]) was less than 1000 M⁻¹, the “Binding constant for sugar chain No. 910” value (FAC binding constant; [3]) was less than 1000 M⁻¹ and the “Binding constant for sugar chain No. 931” value (FAC binding constant; [3]) was less than 1000 M⁻¹. The “Binding constant for sugar chain No. 932” value (FAC binding constant; [3]) was less than 1000 M⁻¹, the “Binding constant for sugar chain No. 933” value (FAC binding constant; [3]) was less than 1000 M⁻¹ and the “Binding constant for sugar chain No. 001” value (FAC binding constant; sugar chain having no fucose) was less than 1000 M⁻¹. The “Binding constant for sugar chain No. 002” value (FAC binding constant; sugar chain having no fucose) was less than 1000 M⁻¹, the “Binding constant for sugar chain No. 003” value (FAC binding constant; sugar chain having no fucose) was 7200 M⁻¹ and the “Binding constant for sugar chain No. 004” value (FAC binding constant; sugar chain having no fucose) was less than 1000 M⁻¹. For the same molecule, the “Binding constant for sugar chain No. 005” value (FAC binding constant; sugar chain having no fucose) was less than 1000 M⁻¹, the “Binding constant for sugar chain No. 006” value (FAC binding constant; sugar chain having no fucose) was 14000 M⁻¹ and the “Binding constant for sugar chain No. 007” value (FAC binding constant; sugar chain having no fucose) was less than 1000 M⁻¹. The “Binding constant for sugar chain No. 008” value (FAC binding constant; sugar chain having no fucose) was 18000 M⁻¹, the “Binding constant for sugar chain No. 009” value (FAC binding constant; sugar chain having no fucose) was 18000 M⁻¹ and the “Binding constant for sugar chain No. 010” value (FAC binding constant; sugar chain having no fucose) was 13000 M⁻¹. For the same molecule, the “Binding constant for sugar chain No. 011” value (FAC binding constant; sugar chain having no fucose) was 14000 M⁻¹, the “Binding constant for sugar chain No. 012” value (FAC binding constant; sugar chain having no fucose) was 25000 M⁻¹ and the “Binding constant for sugar chain No. 013” value (FAC binding constant; sugar chain having no fucose) was 17000 M⁻¹. The “Binding constant for sugar chain No. 014” value (FAC binding constant; sugar chain having no fucose) was 17000 M⁻¹, the “Binding constant for sugar chain No. 101” value (FAC binding constant; sugar chain having no fucose) was less than 1000 M⁻¹ and the “Binding constant for sugar chain No. 103” value (FAC binding constant; sugar chain having no fucose) was less than 1000 M⁻¹. The “Binding constant for sugar chain No. 104” value (FAC binding constant; sugar chain having no fucose) was less than 1000 M⁻¹, the “Binding constant for sugar chain No. 105” value (FAC binding constant; sugar chain having no fucose) was less than 1000 M⁻¹ and the “Binding constant for sugar chain No. 107” value (FAC binding constant; sugar chain having no fucose) was less than 1000 M⁻¹. For the same molecule, the “Binding constant for sugar chain No. 108” value (FAC binding constant; sugar chain having no fucose) was less than 1000 M⁻¹, the “Binding constant for sugar chain No. 301” value (FAC binding constant; sugar chain having no fucose) was less than 1000 M⁻¹ and the “Binding constant for sugar chain No. 304” value (FAC binding constant; sugar chain having no fucose) was less than 1000 M⁻¹. The “Binding constant for sugar chain No. 305” value (FAC binding constant; sugar chain having no fucose) was less than 1000 M⁻¹, the “Binding constant for sugar chain No. 307” value (FAC binding constant; sugar chain having no fucose) was less than 1000 M⁻¹ and the “Binding constant for sugar chain No. 308” value (FAC binding constant; sugar chain having no fucose) was less than 1000 M⁻¹. For the same molecule, the “Binding constant for sugar chain No. 313” value (FAC binding constant; sugar chain having no fucose) was less than 1000 M⁻¹, the “Binding constant for sugar chain No. 314” value (FAC binding constant; sugar chain having no fucose) was less than 1000 M⁻¹ and the “Binding constant for sugar chain No. 323” value (FAC binding constant; sugar chain having no fucose) was less than 1000 M⁻¹. The “Binding constant for sugar chain No. 501” value (FAC binding constant; sugar chain having no fucose) was less than 1000 M⁻¹, the “Binding constant for sugar chain No. 502” value (FAC binding constant; sugar chain having no fucose) was less than 1000 M⁻¹ and the “Binding constant for sugar chain No. 503” value (FAC binding constant; sugar chain having no fucose) was less than 1000 M⁻¹. The “Binding constant for sugar chain No. 504” value (FAC binding constant; sugar chain having no fucose) was less than 1000 M⁻¹, the “Binding constant for sugar chain No. 701” value (FAC binding constant; sugar chain having no fucose) was less than 1000 M⁻¹ and the “Binding constant for sugar chain No. 702” value (FAC binding constant; sugar chain having no fucose) was less than 1000 M⁻¹. For the same molecule, the “Binding constant for sugar chain No. 703” value (FAC binding constant; sugar chain having no fucose) was less than 1000 M⁻¹, the “Binding constant for sugar chain No. 704” value (FAC binding constant; sugar chain having no fucose) was less than 1000 M⁻¹ and the “Binding constant for sugar chain No. 705” value (FAC binding constant; sugar chain having no fucose) was less than 1000 M⁻¹. For the same molecule, the “Binding constant for sugar chain No. 706” value (FAC binding constant; sugar chain having no fucose) was less than 1000 M⁻¹, the “Binding constant for sugar chain No. 707” value (FAC binding constant; sugar chain having no fucose) was less than 1000 M⁻¹ and the “Binding constant for sugar chain No. 708” value (FAC binding constant; sugar chain having no fucose) was less than 1000 M⁻¹. The “Binding constant for sugar chain No. 709” value (FAC binding constant; sugar chain having no fucose) was less than 1000 M⁻¹, the “Binding constant for sugar chain No. 710” value (FAC binding constant; sugar chain having no fucose) was less than 1000 M⁻¹ and the “Binding constant for sugar chain No. 711” value (FAC binding constant; sugar chain having no fucose) was less than 1000 M⁻¹. The “Binding constant for sugar chain No. 712” value (FAC binding constant; sugar chain having no fucose) was less than 1000 M⁻¹, the “Binding constant for sugar chain No. 713” value (FAC binding constant; sugar chain having no fucose) was less than 1000 M⁻¹ and the “Binding constant for sugar chain No. 715” value (FAC binding constant; sugar chain having no fucose) was less than 1000 M⁻¹. For the same molecule, the “Binding constant for sugar chain No. 716” value (FAC binding constant; sugar chain having no fucose) was less than 1000 M⁻¹, the “Binding constant for sugar chain No. 717” value (FAC binding constant; sugar chain having no fucose) was less than 1000 M⁻¹ and the “Binding constant for sugar chain No. 724” value (FAC binding constant; sugar chain having no fucose) was less than 1000 M⁻¹. The “Binding constant for sugar chain No. 725” value (FAC binding constant; sugar chain having no fucose) was less than 1000 M⁻¹, the “Binding constant for sugar chain No. 732” value (FAC binding constant; sugar chain having no fucose) was less than 1000 M⁻¹ and the “Binding constant for sugar chain No. 733” value (FAC binding constant; sugar chain having no fucose) was less than 1000 M⁻¹. For the same molecule, the “Binding constant for sugar chain No. 734” value (FAC binding constant; sugar chain having no fucose) was less than 1000 M⁻¹, the “Binding constant for sugar chain No. 735” value (FAC binding constant; sugar chain having no fucose) was less than 1000 M⁻¹ and the “Binding constant for sugar chain No. 736” value (FAC binding constant; sugar chain having no fucose) was less than 1000 M⁻¹. The “Binding constant for sugar chain No. 737” value (FAC binding constant; sugar chain having no fucose) was less than 1000 M⁻¹, the “Binding constant for sugar chain No. 738” value (FAC binding constant; sugar chain having no fucose) was less than 1000 M⁻¹ and the “Binding constant for sugar chain No. 901” value (FAC binding constant; sugar chain having no fucose) was less than 1000 M⁻¹. For the same molecule, the “Binding constant for sugar chain No. 902” value (FAC binding constant; sugar chain having no fucose) was less than 1000 M⁻¹, the “Binding constant for sugar chain No. 903” value (FAC binding constant; sugar chain having no fucose) was less than 1000 M⁻¹ and the “Binding constant for sugar chain No. 905” value (FAC binding constant; sugar chain having no fucose) was less than 1000 M⁻¹. For the same molecule, the “Binding constant for sugar chain No. 906” value (FAC binding constant; sugar chain having no fucose) was less than 1000 M⁻¹, the “Binding constant for sugar chain No. 907” value (FAC binding constant; sugar chain having no fucose) was less than 1000 M⁻¹ and the “Binding constant for sugar chain No. 015” value (FAC binding constant; sugar chain having α1→6 fucose) was 56000 M⁻¹. The “Binding constant for sugar chain No. 201” value (FAC binding constant; sugar chain having α1→6 fucose) was 500000 M⁻¹, the “Binding constant for sugar chain No. 202” value (FAC binding constant; sugar chain having α1→6 fucose) was 110000 M⁻¹ and the “Binding constant for sugar chain No. 203” value (FAC binding constant; sugar chain having α1→6 fucose) was 730000 M⁻¹. For the same molecule, the “Binding constant for sugar chain No. 401” value (FAC binding constant; sugar chain having α1→6 fucose) was 42000 M⁻¹, the “Binding constant for sugar chain No. 402” value (FAC binding constant; sugar chain having α1→6 fucose) was 59000 M⁻¹ and the “Binding constant for sugar chain No. 403” value (FAC binding constant; sugar chain having α1→6 fucose) was 99000 M⁻¹. For the same molecule, the “Binding constant for sugar chain No. 404” value (FAC binding constant; sugar chain having α1→6 fucose) was 58000 M⁻¹, the “Binding constant for sugar chain No. 405” value (FAC binding constant; sugar chain having α1→6 fucose) was 47000 M⁻¹ and the “Binding constant for sugar chain No. 406” value (FAC binding constant; sugar chain having α1→6 fucose) was 18000 M⁻¹. The “Binding constant for sugar chain No. 407” value (FAC binding constant; sugar chain having α1→6 fucose) was 1000 M⁻¹, the “Binding constant for sugar chain No. 410” value (FAC binding constant; sugar chain having α1→6 fucose) was less than 1000 M⁻¹ and the “Binding constant for sugar chain No. 413” value (FAC binding constant; sugar chain having α1→6 fucose) was less than 1000 M⁻¹. For the same molecule, the “Binding constant for sugar chain No. 418” value (FAC binding constant; sugar chain having α1→6 fucose) was less than 1000 M⁻¹, the “Binding constant for sugar chain No. 601” value (FAC binding constant; sugar chain having α1→6 fucose) was 30000 M⁻¹ and the “Binding constant for sugar chain No. 602” value (FAC binding constant; sugar chain having α1→6 fucose) was 24000 M⁻¹. The “Binding constant for sugar chain No. 728” value [1] was less than 1000 M⁻¹, the “binding to sugar chain excluding the α1→6 fucose (in words)” value ([2]; sugar chains No. 003, and 005 to 014 for LCL and PSL) was “bind” and the “binding to the fucose α1→6 sugar chains (in words)” value ([2]; sugar chains No. 015, 201 to 203, and 401 to 418) was “bind”.
